One assay addresses T1, FcγRIIa H131 (human, UniProt P12318).
T1 chain: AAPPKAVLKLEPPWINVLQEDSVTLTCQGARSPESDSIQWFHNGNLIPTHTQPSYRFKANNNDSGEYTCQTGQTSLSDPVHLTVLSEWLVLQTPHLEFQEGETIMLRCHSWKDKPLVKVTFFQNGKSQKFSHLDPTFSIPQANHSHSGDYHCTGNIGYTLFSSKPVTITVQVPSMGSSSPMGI
As to the kind of experiment: SPR. For orientation: SPR reads the build-up and loss of mass on a sensor chip optically.

Another assay addresses FcγRIIIa F158 (human, UniProt P08637). The assay is described as follows: SPR.
The target of another assay is T2, FcγRIIa R131 (human, UniProt P12318).
T2 chain: T1 chain with H132R
The assay is described as follows: SPR.

The target of another assay is T3, FcγRIIb (human, UniProt P31994).
T3 chain: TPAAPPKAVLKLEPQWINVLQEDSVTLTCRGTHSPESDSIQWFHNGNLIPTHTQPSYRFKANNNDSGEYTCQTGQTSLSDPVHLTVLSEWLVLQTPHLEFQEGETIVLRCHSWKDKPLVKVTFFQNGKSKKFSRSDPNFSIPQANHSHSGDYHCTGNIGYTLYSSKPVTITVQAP
As to the kind of experiment: SPR.

Another assay concerns the target T4, FcγRIa (human, UniProt P12314).
T4 chain: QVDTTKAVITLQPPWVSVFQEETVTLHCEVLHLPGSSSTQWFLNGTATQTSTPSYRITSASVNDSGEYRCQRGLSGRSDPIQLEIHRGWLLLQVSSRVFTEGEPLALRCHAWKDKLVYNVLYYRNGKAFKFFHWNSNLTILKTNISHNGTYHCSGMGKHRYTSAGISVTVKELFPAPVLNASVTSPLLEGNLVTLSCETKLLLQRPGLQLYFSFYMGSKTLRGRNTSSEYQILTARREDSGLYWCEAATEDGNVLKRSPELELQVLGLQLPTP
The assay is described as follows: SPR.

In a further assay the target is FcγRIIIa V158 (human, UniProt P08637). As to the kind of experiment: SPR.
Sequence of FcγRIIIa V158 (P08637 17-208 F176V): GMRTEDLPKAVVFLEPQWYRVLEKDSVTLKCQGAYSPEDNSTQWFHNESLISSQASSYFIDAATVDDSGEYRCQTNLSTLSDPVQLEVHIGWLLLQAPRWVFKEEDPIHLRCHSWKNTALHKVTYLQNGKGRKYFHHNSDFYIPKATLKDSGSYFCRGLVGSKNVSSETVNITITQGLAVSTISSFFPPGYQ
The target in assay [1] is T5, human FcRn (human, UniProt P55899). As to the kind of experiment: SPR, pH 7.4.
T5 sequence (P55899 24-297, chain 1 of 2): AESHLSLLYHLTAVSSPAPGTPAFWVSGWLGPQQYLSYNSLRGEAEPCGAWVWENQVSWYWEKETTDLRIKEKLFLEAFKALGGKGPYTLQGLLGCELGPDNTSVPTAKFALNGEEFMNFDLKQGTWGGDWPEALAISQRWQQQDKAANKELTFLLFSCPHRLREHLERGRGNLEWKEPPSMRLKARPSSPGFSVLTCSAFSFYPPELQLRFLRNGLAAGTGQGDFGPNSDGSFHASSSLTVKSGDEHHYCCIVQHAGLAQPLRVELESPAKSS
T5 sequence (chain, as listed by the source, chain 2 of 2): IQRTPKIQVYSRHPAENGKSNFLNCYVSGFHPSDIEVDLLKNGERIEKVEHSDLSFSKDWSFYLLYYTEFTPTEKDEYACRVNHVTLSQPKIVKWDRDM
Assay [2] concerns the target T5, human FcRn. As to the kind of experiment: SPR, pH 6.0.

Where a chain is given by its changes, count along the chain named.

Sequence of FcγRIIIa F158 (P08637 17-208): as the sequence (P08637 17-208 F176V) above, with V160F counted along it

B1: IgG1-CD137-009-HC7LC2-FEAR (antibody)
chain 1: EVQLVESGGGLVQPGRSLRLSCTASGFSLNDYWMSWVRQAPGKGLEWVGYIDVGGSLYYAASVKGRFTISRDDSKSIAYLQMNSLKTEDTAVYYCARGGLTYGFDLWGQGTLVTVSSASTKGPSVFPLAPSSKSTSGGTAALGCLVKDYFPEPVTVSWNSGALTSGVHTFPAVLQSSGLYSLSSVVTVPSSSLGTQTYICNVNHKPSNTKVDKRVEPKSCDKTHTCPPCPAPEFEGGPSVFLFPPKPKDTLMISRTPEVTCVVVAVSHEDPEVKFNWYVDGVEVHNAKTKPREEQYNSTYRVVSVLTVLHQDWLNGKEYKCKVSNKALPAPIEKTISKAKGQPREPQVYTLPPSREEMTKNQVSLTCLVKGFYPSDIAVEWESNGQPENNYKTTPPVLDSDGSFFLYSRLTVDKSRWQQGNVFSCSVMHEALHNHYTQKSLSLSPG
chain 2: DIVMTQSPSSLSASVGDRVTITCQASEDISSYLAWYQQKPGKAPKRLIYGASDLASGVPSRFSASGSGTDYTFTISSLQPEDIATYYCHYYATISGLGVAFGGGTKVEIKRTVAAPSVFIFPPSDEQLKSGTASVVCLLNNFYPREAKVQWKVDNALQSGNSQESVTEQDSKDSTYSLSSTLTLSKADYEKHKVYACEVTHQGLSSPVTKSFNRGEC
As for B1, the binding result with FcγRIIa H131, in the assay with FcγRIIIa F158, in the assay with FcγRIIa R131, with FcγRIIb, with FcγRIa and with FcγRIIIa V158 was “no binding” throughout. The binding result with human FcRn [1] is listed as “no binding”. For the same molecule, binding with human FcRn [2] was put at a Kd of 375 nM.

A word on the Kd: it is the concentration at which binding is half-saturated.

The values above are taken from patent US20260347498 (published 2026).
